From patent US20200355707A1

Assays:
[1] = biological target: prostate specific antigen (ABIN572980) (UniProt P07288); experiment: in situ ellipsometry on rSAM-SA-anti-PSA sensor, buffer
[2] = biological target: prostate specific antigen (ABIN572980) (UniProt P07288); experiment: in situ ellipsometry; PSA spiked into 200-fold diluted human serum
[3] = biological target: prostate specific antigen (ABIN572980) (UniProt P07288); experiment: in situ ellipsometry; 100 pM antigen in borate buffer pH 8 on the antibody-modified rSAM
[4] = biological target: prostate specific antigen (ABIN572980) (UniProt P07288); experiment: in situ ellipsometry, PSA from buffer media
[5] = biological target: prostate specific antigen (ABIN572980) (UniProt P07288); experiment: ellipsometry; PSA layer formed on rSAM-SA-biotinylated anti-PSA
[6] = biological target: biotinylated anti-human-serum-albumin antibody; experiment: ellipsometry; biotinylated anti-HSA (5 µM) layer on streptavidin-modified rSAM; binding through biotin
[7] = biological target: biotinylated prostate specific antigen antibody (ABIN 192197); experiment: ellipsometry; biotinylated anti-PSA (5 µM) layer on streptavidin-modified rSAM; binding through biotin

With “biotinylated prostate specific antigen antibody (ABIN 192197)” as the substance, how does the detection limit [1] read?
Its detection limit is 40 fM.

And the film thickness increase [2]?
Its film thickness increase is 4 nm.

And the film thickness increase [3]?
The film thickness increase was 4 nm.

What about the maximum surface coverage [4] of the same substance?
Its maximum surface coverage is 2.4 mg/m^2.

What about the top layer thickness [5] of the same substance?
The top layer thickness was 4 nm.

“streptavidine (from UniProt P22629 37-163)” was tested. Which top layer thickness [6] did it give?
The top layer thickness was 3.4 nm.

What about the top layer thickness [7] of the same substance?
The top layer thickness was 4 nm.
